# Test: soluble on expression in E. coli; label from the status in PepcDB or PDB records
row,Sequence,soluble on expression in E. coli
1,MIEISTSSTTTTLLVAGDLDLAEREQFPEVTARVVGLRRQLLVIDMCRVTFMDSTGAAFLISLADAGRRRGGATVLRGAADRDLFVLEICGALELFRIDADHHCELGAELPSAPEGAPAPA,not soluble
2,MIESVLLLVSGLPGSGKSTLARGMAEALAWPCLDKDDFLEALFDARGIGDAAWRRALSREADSRFLAALQAAPRAVACSWWRHPRGEGGSGTPIGGLARPGRLVLELHCRCPAELAAARFARRVRHPGHLDAQRDPGALSLQLRRAERLGPLGLGQCLILDASVQTDLSGALAWTRDALAAGALADPPRHPLEHHHHHH,not soluble
3,MIEWQDLHHSELSVSQLYALLQLRCAVFVVEQNCPYQDIDGDDLTGDNRHILGWKNDELVAYARILKSDDDLEPVVIGRVIVSEALRGEKVGQQLMSKTLETCTHHWPDKPVYLGAQAHLQNFYQSFGFIPVTEVYEEDGIPHIGMAREVIQA,soluble
4,MIFSDWPWRHWRQVRGETIALRLNDEQLNWRELCARVDELASGFAVQGVVEGSGVMLRAWNTPQTLLAWLALLQCGARVLPVNPQLPQPLLEELLPNLTLQFALVPDGENTFPALTSLHIQLVEGAHAATWQPTRLCSMTLTSGSTGLPKAAVHTYQAHLASAQGVLSLIPFGDHDDWLLSLPLFHVSGQGIMWRWLYAGARMTVRDKQPLEQMLAGCTHASLVPTQLWRLLVNRSSVSLKAVLLGGAAIPVELTEQAREQGIRCFCGYGLTEFASTVCAKEADGLADVGSPLPGREVKIVNNEVWLRAASMAEGYWRNGQLVSLVNDEGWYATRDRGEMHNGKLTIVGRLDNLFFSGGEGIQPEEVERVIAAHPAVLQVFIVPVADKEFGHRPVAVMEYDHESVDLSEWVKDKLARFQQPVRWLTLPPELKNGGIKISRQALKEWVQRQQ,soluble
5,MIFSKKDIQEVLPADVTGRSVAHPKRWLVALVRISHEKKTSERLSKMGIENFLPVQQEVHQWSDRRKVVERVLLPMMIFVHVDMYEQKEVLTLGSISRYMVLRGESTPAVIPDEQMHRFKFMLDYSDEAINMSTTPLSPGTKIKVIKGPLSGLQGELVTVNGKSKVAVRLTMLGCAFVDIPVGCVEPLEK,not soluble
6,MIGFAYLRLQKPSVYVIASQHFDGSIAAGLFESFGFKNIRGSSKKGGVKVLIEGLKRLKEGCDVAITPDGPKGPRHSIADGVIALAQKSGVGISACRVVCKNAWRLNTWDQFEIPKPFSEVYYYMLESVIIPKEWELSRAKEYLKTRMDSVGFEEPQRGLGALEHHHHHH,soluble
7,MIGKEEIHRIRELIGAKEGPVLSLYVDVNPAKPENAGRAYALRAKDAIKALEVPGDLSERVLEVLQNQVLEARTAVFFAGEDLFEVLPLQVELPLVNSVKTAFLDEKAGRYLVDGVLAHWGEPFLLPLVYALDEYERYGIVYVDRERWRVFEVFLGEIEEVHDAFLALDTEAWRRLSLDAPGRRFNLGGIARGGAGQDLFAKRLEAWEERFYKALAHELERLSEARGFTRLVLMGPEEHTKLFLGHLPKRLRERVVAELPSLPHPGASPGEVLKRLEPVLEEVERREEVKLLERLEEAYPKAAFGPEVLARVQEGRVEVWVLPWHLEQEVYLCQDFAFADEAQALAYCESPEKKPLAAVLASLAVGYATKLEFVRGEAENRLLERGGMAALLRW,soluble
8,MIGKKILGERYVTVSEAAEIMYNRAQIGELSYEQGCALDYLQKFAKLDKEEAKKLVEELISLGIDEKTAVKIADILPEDLDDLRAIYYKRELPENAEEILEIVRKYI,soluble
9,MIGSTSDGLVPGNTDMPATPTTALTALRTPHPPTGGESMHPRTRTAPALLFAVCLTALAAYPAAADDPVPTTERVSVTLDGAQIDDPSYRPQLTSKGGVVYTSDGPVWSTDHNGVSDAYRNSERVSYNMGAARSYDPSACHTARMIAFVSDRTPAGGTTPSVYVRNTPVGKLSYASHGYQGVPFTWAGQPAMSADCQWMAFSATLPATPDHVEQPRVYRYRIYDGTIEQVSPDSADGSRAAVRPSISADGRYVAYQSSIPHPGGPANDSDIYVRDLETGTLEKASVGRHGRPADRASTGPSLSADGRHVAFDSYASNLAPGDTNGTVNVFVRDLDAGTTRLVKGAGRHAYTAEAALSGDGLHLAYVSAGIRGSRGVPAVYLRDLATGRTRLISVDTRGHRNDRAAGNPSVNPDGTAVAFDSASPDLVPGDTNGTVDVFLRRLGSPEALEHHHHHH,soluble
10,MIGYQIYVRSFRDGNLDGVGDFRGLKNAVSYLKELGIDFVWLMPVFSSISFHGYDVVDFYSFKAEYGSEREFKEMIEAFHDSGIKVVLDLPIHHTGFLHTWFQKALKGDPHYRDYYVWANKETDLDERREWDGEKIWHPLEDGRFYRGLFGPFSPDLNYDNPQVFDEMKRLVLHLLDMGVDGFRFDAAKHMRDTIEQNVRFWKYFLSDLKGIFLAEIWAEARMVDEHGRIFGYMLNFDTSHCIKEAVWKENTRVLIESIERAVIAKDYLPVNFTSNHDMSRLASFEGGFSKEKIKLSISILFTLPGVPLVFYGDELGMKGVYQKPNTEVVLDPFPWNESMCVEGQTFWKWPAYNGPFSGISVEYQKRDPDSILSHTLGWTRFRKENQWIDRAKLEFLCKEDKFLVYRLYDDQHSLKVFHNLSGEEVVFEGVKMKPYKTEVV,soluble
11,MIIERLVGNLRDLNPLDFSVDHVDLEWFETRKKIARFKTRQGKDIAIRLKDAPKLGLSQGDILFKEEKEIIAVNILDSEVIHIQAKSVAEVAKICYEIGNRHAALYYGESQFEFKTPFEKPTLALLEKLGVQNRVLSSKLDSKERLTVSMPHSEPNFKVSLASDFKVVVK,not soluble
12,MIIKKIIDLTMPITAQTPVYPGDPKPKIEPAATFAQDGYHVSRLVLGSHSGTHVDAPFHFCEHGWRLDDVPLTYFLGRGVVIDATGKAEGEAVTMADAAPYIPKLSPGTIVLFHTGWSQYAGTKRYFRHPYVAPDVIEAMLERGVRTFLIDALNIDPPDGSLFHAHELILGANGVIGENFVNFERIDFDDPYIIALPLSLPGCERFARSGGGGAVGVTKKGDTAPHML,not soluble
13,MIINKVKSLIKHGFNLAIDISADILLIFTETGRTYEYYKDQEAIYKRARKNRSLKDFKSLKVVVTTPNEETFLKLKNESKIIPLLMTYRNDDRSSMIKQAVTNLFANNIVKKGDIVVSILGIPKVTGGTDTISIFEVNEYPQILKYYDYISSIEKTKGKVINEVLNLCMELAVEGREGTPVGSIFVIGDSDRVLKMSSQLILNPFEGHESFIFDKQVKGTVKELSTIDGAFVIGEKGEVLCAGRYISCSGGNIELPLGLGARHHAAATISKYTGAIAITVSESGGVIRIFKNGEILSEIKPKKLSNTSEYSY,not soluble
14,MIISDKFSLEAMCATTITDVKAGDEIILYGQKLTDENSCVTIKTDRVDIISSGNFIKYPNSTDIYDFDNKIDEWSFIIVEGVVNGNTIELNDKSTF,not soluble
15,MIKASLVFFAFLALASGRRHHYDYYDCEPERGPRGREGREGPRGAQGAPGPNGTGFFWPGTCEQSDCPDGWISVNRKINNDVEKKWCINMFWNQATNDLYKTSEKVCNSYGGVMTGFKDKGEFISVFALLKNRFPNIKPVSQVMIGARRLETCASISNFGNCTITKGTKWTDLVMSIDSFFNELQQSARFSPLKKCIVANPTNLKLYVANCNVLESDYPQDLFMCGRFAPCKK,not soluble
16,MIKDLVRPELQKLVPYVSHQVPYRIKLDANESPFELPESIRKKLADYFLKGPGLNIYPDNESVELRKTIAKYWNVDADEVIVGTGSNQLIQLIITVFVGKGEKVLYPWPTFSMYKINTLIAGGEPVAFPLDKEKDFVLDTDKFIEAVKTENAKVVFLCNPNNPTGGLVPLEHIEKIVKECKSSIIVVDEAYAEFCPQSVIPLVKKYENLVVLRTFSKAYLLAGARCGYSISGIEIANEINKVRPTYNVSSLTQLIAKMVFEEQEEMQKMIRYLIEQRGELEKSLKKIKDVCIYPSHANYILVKVPEAEMISKELQKRGILIRSFPNDPVLYDCIRITVGTKEQNDIFLEEFSDIINNF,not soluble
17,MIKEQVKSLWKLCFDDSEAFIELYFRLRYNNEVNLAIQSGEEVIAALQMLPYPMTFCNKIVPTSYISGACTHPDYRAKGVMRELLSQSFARMLRNGVLFSTLIPAEPWLFGYYAKTGYTPAFRISHKVFSLSELTIGPEPDTMIEETTEYQEDYYQYLTGKLSERACCLQHTPTDFKVVLADLALTQNTVLIARKDNRVTGIAVVYKHDDSSYINELFADNEAVRAQLLYRAGLRNGTERIILQLPPVESLPSVPLGMARIIDARAVLQLYAAGCPEVEMNIELTDEQLSVNNGYYYLCKGKCMTSEVRLPGVHTRMTIAELSEKILGEMQPYMSLMMN,not soluble
18,MIKFSIRGENIEVTEAIRDYVESKLTKIEKYFAKDQEIDARVNLKVYRERSSKVEVTIPLDSVTLRAEDVSQDMYGSIDLVVDKIERQIRKNKTKIAKKHREKVPTGQVFTTEFEAEEVDEIPEVQVVRTKNVTLKPMDVEEARLQMELLGHDFFIYTDSEDGATNILYRREDGNLGLIEAKLEHHHHHH,soluble
19,MIKILAACGAGVNSSHQIKSALEEELSNRGYDVHCDAVMVKDVNEDLMKGYDIFTPIAATDLGFEPGIPVIEAGPILFRIPAMSVPVFDNIRLPAKQNMV,not soluble
20,MIKPLTSSQEEVLKALNDDKYQIVGVFGPTGTGKTLLTLSYGIDVIKQGKFKKFIIVKPIVDIVTKKEITATELPNYHEVILSYIKDVLGPEYSATVDELYKSGRIEILDSRLLRGRTFDDSIIFIDEVQELQPESIIELIIRIGRNSKLVVAGDPVFQSLQMKTFKDPSELVREVLLNEEDAKVIDLGVKDIIRAGAKRGLRLLIEYRLRSRILSEEENKVLNVTKAHAPDADIITVVDLSEEKKKLGLDNLTTVPDSIIVVKEGNIGRLVGKGGERINSTEKEIGKKLRALELSLDFKEYIRAVHPLPWVVKHIEDADFKGNELVVQIKKETGAFMGQKGSYVRFVDEAIRKLLGVGIRVIAKENENS,soluble
21,MILKASKEALKEAVEILKKGGIIVAPTDTLYGILADATNEEAVKRLYKIRRPSGKPFLVLLPDESWLEKLCLDVKEEHKKLLKVEGLTLVFRKTCDKLDYVSKGTLAVRLPQKGFIRDLLSELKKPVVAPSVNPEGKKPAESVEEAYNYFGNKVDLYIDAGVIKGEPSTILDLTEGVKILREGKVKKEEIEKILNRKL,soluble
22,MILLQLNHISKSFDGEDIFTDVDFEVKTGERIGIVGRNGAGKSTLMKIIAGVENYDSGNVSKIKNLKLGYLTQQMTLNSNATVFEEMSKPFEHIKRMESLIKEETDWLSKHANDYDSDTYKTHMSRYESLSNQFEQLEGYQYESKIKTVLYGLNFSEEDFNKPINDFSGGQKTRLSLAQMLLNEPDLLLLDEPTNHLDLETTKWLEDYLRYFKGAIVIISHDRYFLDKIVTQIYDVALGDVKRYVGNYEEFIQQRDLYYQKRMQEYESQQAEIKRLETFVEKNITRASTSGMAKSRRKILEKMERIDKPMLDAKSANIQFGFDRNTGNDVMHVKNLEIGYQTAITKPMSIEVSKGDHIAIIGPNGIGKSTLIKTIANQQKALNGDITFGANLQIGYYDQKQAEFKSSKTILDYVWDQYPLMNEKDIRAVLGRFLFVQDDVKKIINDLSGGEKARLLLALLMLQRDNVLILDEPTNHLDIDSKEMLEQALQHFEGTILFVSHDRYFINQLANKVFDLTIDGGKMYLGDYQYYIEKVEEAEALKAHQEEQSVNVQAHKKSMEQSSYHNQKEQRREQRKLERQISECENEIETLETTILQIDEQLTQPEVYNNPQKANELAIQKQDSEQKLEHAMSKWEELQQKL,not soluble

# Source: the DeepSol protein solubility set
